# pKd: −log10 of the molar value.
# Tests used:
# [1] = target: PfCSPm (PfCSP_SAmut_C5S), stabilized mutant form of PfCSP (Plasmodium falciparum) (UniProt Q7K740); assay: ITC, antibody titrated into PfCSPm; first site
# [2] = target: PfCSPm (PfCSP_SAmut_C5S), stabilized mutant form of PfCSP (Plasmodium falciparum) (UniProt Q7K740); assay: ITC, antibody titrated into PfCSPm, pH 7.4, 25 C, two sets of sites; second site
# [3] = target: PfCSPm (PfCSP_SAmut_C5S), stabilized mutant form of PfCSP (Plasmodium falciparum) (UniProt Q7K740); assay: ITC, two-site model
# [4] = target: PfCSPm (PfCSP_SAmut_C5S), stabilized mutant form of PfCSP (Plasmodium falciparum) (UniProt Q7K740); assay: ITC, antibody titrated into PfCSPm; second site
# [5] = target: PfCSPm (PfCSP_SAmut_C5S), stabilized mutant form of PfCSP (Plasmodium falciparum) (UniProt Q7K740); assay: ITC, antibody titrated into PfCSPm, pH 7.4, 25 C, two sets of sites; first (junctional) site
# [6] = target: PfCSPm (PfCSP_SAmut_C5S), stabilized mutant form of PfCSP (Plasmodium falciparum) (UniProt Q7K740); assay: ITC
# [7] = target: PfCSPm (PfCSP_SAmut_C5S), stabilized mutant form of PfCSP (Plasmodium falciparum) (UniProt Q7K740); assay: ITC, two-site model [lower table]
Substance,stoichiometry [1],pKd [2],-TΔS1 [3],-TΔS2 [3],ΔG1 [3],ΔG2 [3],ΔH1 [3],ΔH2 [3],stoichiometry [4],pKd [5],pKd [6],change in ΔG [6],fold affinity increase over mature CIS43 [6],-TΔS1 [7],-TΔS2 [7],ΔG1 [7],ΔG2 [7],ΔH1 [7],ΔH2 [7]
mature CIS43 antibody (IgG),2.4,7.20,13.4 kcal/mol,0.9 kcal/mol,-10.6 kcal/mol,-9.8 kcal/mol,-24 kcal/mol,-10.7 kcal/mol,5.8,7.74,–,–,–,–,–,–,–,–,–
mature CIS43 with L98I in the heavy chain (antibody),–,–,–,–,–,–,–,–,–,–,7.96,0.2 kcal/mol,1.6 fold,8.8 kcal/mol,-0.9 kcal/mol,-10.8 kcal/mol,-10.2 kcal/mol,-19.6 kcal/mol,-9.3 kcal/mol

# From patent publication US20250011406A1
